Data published in the nanobody polyreactivity screen of Harvey et al. (2022).

Experiment: yeast display, Sf9 membrane polyspecificity reagent, FACS + sequencing; frameworks hold sequencing errors
In short: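 Using colony PCR, genes from sorted yeast display clones were amplified, then sequenced on MiSeq at 2 × 250 and filtered by CDR length. The clones had been stained with 10% biotinylated, detergent-solubilized Sf9 membrane reagent for 1 hour at 4 °C and sorted by FACS into low and high (top ~1%) gates on anti-HA and streptavidin fluorescence. Polyreactivity labels come from the gate of origin.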

Sequence | polyreactivity (PSR sort gate)
QVQLVESGGGLVQAGGSLRLSCAASGNIFETNAMGWYRQAPVKERELVAAISASGGSTYYADSVKGRFTISRDNAKNNVYLQMNSLKPEDTAVYYCNDRVDSYYGDAFDYWGQGTQVTVSS | high polyreactivity
QVQLVESGGGLVQAGGSLRLSCAASGFTLRANAMGWYRQAPGKERELVAAITRTGGRTYYADSVKGRFTISRDNAKNTVYLQMNSLKPEDTAVYYCAADHGPSKWYDYWGQGTEVTVSS | low polyreactivity
QVQLVESGGGLVQAGGSLRLSCAASGSIFVRYTMGWYRQAPGKERELVAGISSRGGSTYYADSVKGRFTISRDNAKNTVYLQMNSLKPEDTAVYYCAATYFRRVVPGYNYWGQGTQVTVSS | high polyreactivity
QVQLVESGGGLVQARGSLRLSCAASGIIFAFYAMGWYRQPPGKERELVAGITSGGDTYYADSVKGRFTISRDNAKKTVYLQMNRLKPEDTAVYYCAAVVQYPYRAGWRYWYATNFDYWGQGTQVTVSS | high polyreactivity
QVQLVESGGGLVQAGGSLRLSCAASGRIFKLYAMGWYRQAPGKERELVAAISTSAGSTNYADSVKGRFTISRDNSKNTVYLQMNSLKPEDTAVYYCAVAGVSTYYTYYYWGQGTQVTVSS | low polyreactivity
QVQLVESVVGLVQAGGSLPISCAASGSTFSANDMVWYSQPHGTERELVAAIDTGGTTYYADSVKGRFTISRDNAKNTVYLQMNSLKPEYTAVYYCNATIWYRDYGYWVQGTQVTVSS | low polyreactivity
QVQLVESGGGLVQAGGSLRLSCAASGRTFGYYAMGWYRQAPGKERELVAPISWSGANTYYADSVKGRFTISRDNAKNTVYLQMNSLKPEDTAVYYCAAVRYYSYAYSIRYGYWGQGTQVTVSS | high polyreactivity
QVQLVESGGGLVQAVGSLRLSCAASGFIFAQNARGGSRPAPGKERELVAAIYGSGVRTYYADSVKGRFTISRDNAKNTVYLQMNSLKPEDTAVYYCAKDTYLQIYQYGYWGQGTQVTVSS | high polyreactivity
QVQLVESGGGLVQAGGILPLSCAASGSIFVSNAMGWSRQAPGKERELVAAISSGSTYYADSVKGRFTISRDNAKNTVYLQMNSLKPEDTAVFYCIARSLLYEFDYWGQGTQVTVSS | low polyreactivity
QVQLVESVGGLLQAGGSLRLSCAASGSIFFVYTMGWYRQAPGKERELFATITDSDGGTYYADSVKGRFTISRDNAKNTVYVQMNSLKPEDTAVYYCAAEVEVYFAIYEYWGQGTQVTVSS | low polyreactivity
QVQLVESGGGLVQAGGSLRLSCAASGSIFPGYAMGWSRPAPGKERELVAAISRDGSTNYADSVKGRFTISRDNAKITVYLQMNSLKPEDTAVYYCARRNPLGGNEHDYWGQGTQVTVSS | low polyreactivity
QVQLVESGGGLVQAGGSLRLSCAASGRIFVWYDMGWYRQAPGKERELVAAISWGGGTNYADSVKGRFTISRDNAKNTVYLQMNSLKPEDTAVYYCAAAPSYYYFVRYVPSDIEGYWGQGTQVTVSS | low polyreactivity
QDQHVESGGGLVQAGGSLRLSCAASGYILRCNTMGWSRKAPGKERELVAAISSRGGITNYADSVKGRFTFSRDNAKNTVYLQMNSRKPEDTAVYYCATYWQYRYDYWGQGTQVTVSS | low polyreactivity
QVQLVESGGGLVQAGGSLRLSCAASGRIFVRNAMGWYRPAPGKERELVAGITRGGGTNFADSVKGSFTISRDNAKNTVYLQMNSLKPEVTAVYDCNALHRARLFGHYPYESWGHGTQVTVSS | high polyreactivity
QVQLVESGGGLVQAGGSLRLSSAASGITFNLNDMGWSRQAPGKERELVAAITSGGNTSYADSVKGRFTISRDNAKNTVYLQMNSLKPEDTAVYYCPTEDFRTDTGMYYWGQGTQVTVSS | low polyreactivity
QVQLVESGGGIVQAGGSLRLSCAASGSTFDSYAMGWYGQAPGKERELVATISWTGSSTYYADSVKGRFTISRDNAKNTVYLQMNSLKPEDTAVYYCATDQYYEYDYWGQGTQVTVSS | low polyreactivity
QVQLVESGGGLDQAGGSLRLSCAASGGTFAVYAMGWYRQAPGKERELVAAIDSGGRTNYADSVKGRFTISRANAKNTVYLQMNSLKPEDTAVYYCAADGGGQYVRYDYWGQGTQVTVSS | high polyreactivity
QVQLVESGGGLVQAGGSLRLSCAASGFIFYRNAMGWYRQAPGKERELVAAISGSGGRTYYADSVKGRFTISRDNAKITVYLQMNSLNPEDTAVYYCNAGPLYRGEYDYWGQGTQVTVSS | high polyreactivity
QVQLVESGGGLVQAGGSLRLSCAASGRISSLYAMGWYRQAPGKERELVAAISGTGGSAYYADSVKGRFTISRDNAKNTVYLQLNSLKPEDTAVYYCNAVRRWRTSQFDYWGQGTQVTVSS | low polyreactivity
QVQLVESGGGLVQAGGSLRLSCAASGRTFYYYGMGWYRQAPGKERELVASITNGGNTNYADSVKGRFTISRDNAKYTVYLQMNSLKPEDTAVYYCAKDVPYWRPVVRYDYWGQGTQVTVSS | low polyreactivity
QVQLVESGGGLVQAGGSLRLSCAAYGSILRSNAMGWYRQAPGKERELVAVISNDDSTYYADSVKGRFTISRDNAKNTVYLQMNSLKPEDTAVYYCNAVYYYFFRWNPIYDSWGQGTQVTVSS | low polyreactivity
QVQLVESGGGLVQAGGSLRLSCAASGLIFRSNAMGWYRQAPGKERELVAAISRNGQSTYYADSVKGRFTISRDNAKYTVYLQMNSLKPEDTAVFYCAARSRDKYDYWGQGTEVTVSS | high polyreactivity

Sequence | polyreactivity (PSR sort gate)
QVQLVESGGGLVQAGGSLRLSCAASGSTFDDNAMGWYRQAPGKERELVAVISSGGSTNYADSVKGRFTISRDNAKNTVYLQMNSLKPEDTAVYYCAAAKLTRRYRYGYWGQGTQVTVSS | high polyreactivity
QVQLVESGGGLVQAGGSLRLSCAASGFNFRKYAMGWYRQAPGKERELVASITSGGGSTYYADSVKGRFTISRDNAKNTVYLQMNSLKPEDTAVYYCAAVAYTGGPRKLGFNYWGQGTQVTVSS | high polyreactivity
QVQLVESGGGLVQAGGSLRLSCAASGFIFGVYAMGWYRQAPGKERELVAAISRSGGSTYYADSVKGRFTISRDNAKNTVYLQMNSLKPEDTAVYYCATQVSWYGKGYYYWGQGTQVTVSS | high polyreactivity
QVQLVESGGGLVQAGGSLRLSCAASGFTFKRYAMGWYRQAPGKERELVAAISYSGGSTYYADSVKGRFTISRDNAKNTVYLQMNSLKPEDTAVYYCAALPGRRLWTYDYWGQGTQVTVSS | high polyreactivity
QVQLVESGGGLVQAGGSLRLSCAASGRIFYYYAMGWYRQAPGKERELVAGIDSGDSTNYADSVKGRFTISRDNAKYTVYLQMNSLKPEDTAVYYCAALHFGGYFSYYPYYYWGQGTQVTVSS | low polyreactivity
QVQLVESGGGLVQAGGSLRISFAASGYIFYNYARRSYRQAPGKERELLAAMTRGGSTNYADSVKGRFTISRDNAQNTVYLQMNSLKPEDTAGYYCAAEEGPPWSRYDSWGQGTQVTVSS | low polyreactivity
QVQLVESGGGLVQAGGSLRLSCAASGSIFRYYAMGWYRQAPGKERELVAAISNRGSSTNYADSVKGRFTISRDNAKNTVYLQMNSLKPEDTAVYYCAARVRYPGLSGNMYYWGQGTQVTVSS | high polyreactivity
QVQLVESGGGLVQAGGSLRLSCAASGSTFGTYAMGWYRQAPGKEREFVAVIRWSGGSTYYADSVKGRFTISRDNAKNTVYLQMNSLKPEDTAVYYCNADTRVKYVGWMYYWGQGTQVTVSS | high polyreactivity
QVQLVESGGGLVQAGGSLRLSCAASGSTFFVYAMGWYRQSPGKERELVADITNSGGNTYYADSVKGRFTISRDNAKNTVFLQMISLKPEDTAVYYCSGEYWFTSYDSWGQGTQVTVSS | high polyreactivity
QVQLVESGAGLVQAGGSLRLSCAASGSIFVVYAMGWYRQAPWKERELVAAISWGIGSTYYADSVKGRFTISRDNAKNTVYLQMNSLKPEDTAVYYCAADTDIVLYDYWGQGTQVTVSS | low polyreactivity
QVQLVESGGGLVQAGGSLRLSSAASGFIFDFYTMGWYRQAPGKERELVAAITWSGDSTYYADSVKGRFTISRDNAKNTVYLQMNSLKPEDTAVYYCASDLSYNPGYDYWGQGTQVTVSS | low polyreactivity
QVQLVESGGGLVQAGGSLRLSCAASGIIFVKNAMGWYRQAPGKERELVAAISRSGARTYYADSVKGRFTISRDNEKNTVYLQMNSLKPEDTAVYYCNVYTRDRGYDYWGHGTQVTVSS | high polyreactivity
QVQLVESGGGLVQAGGSLRLSCAASGRIFYYYAMGWYRQAPGKERELVAAISWSGVNTYYADSVKGRFTISRDNAKNTVYLQMNSLKPEDTAVYYCAAGFAYKYSKGFWSDYWGQGTQVTVSS | high polyreactivity
QVQLVESGGGLVQAGGSLRLSCAASGSTFRYYAMGWYRQAPGKERELVAAISGSGGRTYYADSVKGRFTISRDNAKNTVYLQMYSLKPEDTAVYYCNTRGRRTDYDYWGQGTQVTVSS | high polyreactivity
QVQLVESGGGLVQAGGSLRFICAASGGISSSNAMGWYRQAHGKERELVAGINSRGGSTYADSVKGRFTISRANAKNTVYLQMNSLKPEDTAVYYCAAAPTYKWRRKNYDYWGQGTQVTVAS | high polyreactivity
QVQLVESGGGLVQAGGSLRLSCAASGYIFAPYAMGWYRQAPGKERELVAAISSGGSTYYADSVKGRFTISRDNAKNTVYLQKNSQKPEDPAVYYCAKRYIYSYYWGQGTQVTVSS | high polyreactivity
QVQLVESGGGLVQAGGSLRLSCAASGSNFRYYALGWYRQAPGKERELVAGNTGSTGRTYYADSVKGRFTISRDNAKNTVYLQMNRLKPEDTAVYYCATGIYRARTSSFRMGYWGQGTHVTVSS | low polyreactivity
QFQLVESGGGLVQAGGSLRLSSAASGFTFIRYAMGWYRPAPGKERELVAAITVSGTRTYYADSVKGRFTISRDNAKNTVYLQMNSLKPEDTAVYYCNARDVYTGYGMGYWGQGTQVTVSS | high polyreactivity
QVQLVESGGGLVQAGGSLRLSCAASVSTFANNAMGWYRQAPGKERELVASITTDGSTNYADSVKGRFTISRDNAKNTVYLQMNSLKPEDTAVYYCAADYHTPSSFAPIELYDYWGQGTQVTVSS | low polyreactivity
QVQLEESVGGLVQAGGSLRLSCAASGLTFRAYAMGWYRQAPGKERELVAAISSGGSTSYADSVKGRFTISRDNANITVYLQMNRLKPEDSAVYYCAADRARRGIRDYYWGQGTQVTVSS | high polyreactivity
QVQIVESGGGLVQAGGSLRLSCAASGSIFWPYTMGWYRQAPGKERELVAAISYSGGRTYYADSVKGRFTISRDNAKNTVYLQMNRLKPEDTAVYYCAAGTYSRGSREDYWGQGTQVTVSS | high polyreactivity
